# T1: recombinant mature dimeric myostatin (human and mouse (mature sequences 100% …, UniProt O08689 268-376))
# T1 construct: also called GDF-8; mature myostatin
# T1 sequence: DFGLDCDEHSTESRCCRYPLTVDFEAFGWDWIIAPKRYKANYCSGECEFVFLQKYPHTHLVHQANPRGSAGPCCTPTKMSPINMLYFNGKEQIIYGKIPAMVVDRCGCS
# How the values were obtained:
# [1] = molecular target: T1, recombinant mature dimeric myostatin; experiment: myostatin capture ELISA: polyclonal anti-myostatin coated, myostatin 1 ug/ml captured, antibody titrated, anti-human kappa-HRP, OPD, A490
# Protocol: The eleven affinity purified CDRH3 variants were also analyzed for binding activity in the myostatin capture ELISA.
# (§1) A 96-well ELISA plate was coated at 4° C. overnight with 2.5 μg/ml polyclonal Antibody to Myostatin (R&D Systems AF788). This plate was then washed 3-times in wash buffer (PBS, 0.1% Tween-20) and blocked for 1 hour at room temperature with block solution (PBS, 0.1% Tween-20+1% bovine serum albumin [BSA]). Then, myostatin was added at 1 μg/ml in block buffer during 1 hour followed by 3-times in wash buffer. Antibodies were then titrated out to a suitable concentration range (approximately 10 to 0.01 μg/ml), added to the plate and incubated for 1 hour at room temperature. The plate was then washed 3-times in wash buffer. An anti-human kappa light chain HRP-conjugated antibody (Sigma A7164, used according to the manufacturer's instructions) was used to detect binding of humanized or chimeric antibodies, such as 10B3 chimera (HcLc) or H0L0. The plate was then washed 3-times in wash buffer and developed with an OPD substrate (according to the manufacturer's instructions) and read at 490 nm on a plate reader.
# [2] = molecular target: T1, recombinant mature dimeric myostatin; experiment: myostatin competition ELISA, direct capture of myostatin, competitor 10B3
# Protocol: as §1
# The protocol set out in 5.7 was used but the plates were initially coated at 4° C. overnight with 0.2 μg/ml of myostatin (recombinant in-house, see 1.1 above). 10B3 (final concentration of 0.3 μg/ml) was added into each well and mixed with antibodies titrated out to a suitable concentration range (approximately 10 to 0.01 μg/ml). An anti-mouse HRP-conjugated antibody (DAKO P0260, used according to the manufacturer's instructions) was used to detect binding of the 10B3 antibody.
# [3] = molecular target: T1, recombinant mature dimeric myostatin; experiment: myostatin competition ELISA, polyclonal Ab capture of myostatin, competitor 10B3
# Protocol: as §1
# The protocol set out in 5.7 was used with the addition of 10B3 (final concentration of […]) to each well and mixed with the antibodies titrated out to a suitable concentration range (approximately 10 to 0.01 μg/ml). An anti-mouse HRP-conjugated antibody (DAKO P0260, used according to the manufacturer's instructions) was used to detect binding of the 10B3 antibody.
# [4] = molecular target: T1, recombinant mature dimeric myostatin; experiment: cell-based or functional assay
# [5] = molecular target: T1, recombinant mature dimeric myostatin; experiment: myostatin competition ELISA, biotinylated myostatin on streptavidin, competitor 10B3
# Protocol: The protocol set out in 5.7 was used but the plates were initially coated at 4° C. overnight with 5 μg/ml of streptavidin. Biotinylated myostatin was added at 0.3 μg/ml block buffer during 1 hour followed by 3-times in wash buffer. 10B3 (final concentration of 0.2 μg/ml) was added into each well and mixed with antibodies titrated out to a suitable concentration range (approximately 10 to 0.01 μg/ml). An anti-mouse HRP-conjugated antibody (DAKO P0260, used according to the manufacturer's instructions) was used to detect binding of the 10B3 antibody.
# [6] = molecular target: T1, recombinant mature dimeric myostatin; experiment: cell-based or functional assay; remark: listed apart in the source
# [7] = molecular target: T1, recombinant mature dimeric myostatin; experiment: ActRIIb neutralisation ELISA: inhibition of 2 nM biotinylated myostatin binding to coated ActRIIb
# Protocol: Recombinant soluble ActRIIb (R&D Systems 339-RBB) was coated in wells of an ELISA plate at 1 μg/ml in carbonate buffer overnight at 4° C. Plates were blocked with PBS containing 0.1% tween 20 and 0.1% BSA and washed following standard ELISA protocols. In parallel, 2 nM biotinylated myostatin (in-house reagent, described above) was pre-incubated with a dilution series of the antibodies of Tables 21 and 22 for 30 minutes at 37° C. The biotinylated myostatin:antibody reactions were then added (50 μl/well) to the ActRIIb coated plate for 1 hour at 37° C. Standard wash procedures were followed prior to addition of 50 μl per well of a 1:200 diluted streptavidin-HRP conjugate (R&D Systems. #890803) followed by a further 37° C. incubation for 1 hour. Plates were again washed and assayed at absorbance 490 nm following substrate (R&D Systems, #DY999) and acid stop solution treatment.
binding result [1],"rank among the five most potent, top (1) to bottom (5) [2]","rank among the five most potent, top (1) to bottom (5) [3]","Mean IC50, A204 in vitro activity assay [4]","rank among the five most potent, top (1) to bottom (5) [5]",Binder,also measured
binds,,,,,"H2L2-C91S_F100G_N (antibody, V domains shown) VH: QVQLVQSGAEVKKPGASVKVSCKASGYSFTGYFMHWVRQAPGQGLEWMGNIYPYNGVSNYNQRFKARVTMTTDTSTSTAYMELRSLRSDDTAVYYCARRYYYGTGPADWYNDVWGQGTLVTVSS VL: DIQMTQSPSSLSASVGDRVTITCKASQDINSYLSWFQQKPGKAPKSLIYRANRLVDGVPSKFSGSGSGTDYTLTISSLQPEDFATYYCLQSDEFPLTFGQGTKLEIKR",
binds,,,,,"H2L2-C91S_W100E_F (antibody, V domains shown) VH: QVQLVQSGAEVKKPGASVKVSCKASGYSFTGYFMHWVRQAPGQGLEWMGNIYPYNGVSNYNQRFKARVTMTTDTSTSTAYMELRSLRSDDTAVYYCARRYYYGTGPADFYFDVWGQGTLVTVSS VL: DIQMTQSPSSLSASVGDRVTITCKASQDINSYLSWFQQKPGKAPKSLIYRANRLVDGVPSKFSGSGSGTDYTLTISSLQPEDFATYYCLQSDEFPLTFGQGTKLEIKR",
binds,,,,,"H2L2-C91S_G99S (antibody, V domains shown) VH: QVQLVQSGAEVKKPGASVKVSCKASGYSFTGYFMHWVRQAPGQGLEWMGNIYPYNGVSNYNQRFKARVTMTTDTSTSTAYMELRSLRSDDTAVYYCARRYYYSTGPADWYFDVWGQGTLVTVSS VL: DIQMTQSPSSLSASVGDRVTITCKASQDINSYLSWFQQKPGKAPKSLIYRANRLVDGVPSKFSGSGSGTDYTLTISSLQPEDFATYYCLQSDEFPLTFGQGTKLEIKR",
binds,,,,,"H2L2-C91S_G100A_K (antibody, V domains shown) VH: QVQLVQSGAEVKKPGASVKVSCKASGYSFTGYFMHWVRQAPGQGLEWMGNIYPYNGVSNYNQRFKARVTMTTDTSTSTAYMELRSLRSDDTAVYYCARRYYYGTKPADWYFDVWGQGTLVTVSS VL: DIQMTQSPSSLSASVGDRVTITCKASQDINSYLSWFQQKPGKAPKSLIYRANRLVDGVPSKFSGSGSGTDYTLTISSLQPEDFATYYCLQSDEFPLTFGQGTKLEIKR",
,4 rank,3 rank,4.22 nM,1 rank,"H2L2-C91S_V102S (antibody, V domains shown) VH: QVQLVQSGAEVKKPGASVKVSCKASGYSFTGYFMHWVRQAPGQGLEWMGNIYPYNGVSNYNQRFKARVTMTTDTSTSTAYMELRSLRSDDTAVYYCARRYYYGTGPADWYFDSWGQGTLVTVSS VL: DIQMTQSPSSLSASVGDRVTITCKASQDINSYLSWFQQKPGKAPKSLIYRANRLVDGVPSKFSGSGSGTDYTLTISSLQPEDFATYYCLQSDEFPLTFGQGTKLEIKR",
,5 rank,,4.53 nM,3 rank,"H2L2-C91S_P100B_I (antibody, V domains shown) VH: QVQLVQSGAEVKKPGASVKVSCKASGYSFTGYFMHWVRQAPGQGLEWMGNIYPYNGVSNYNQRFKARVTMTTDTSTSTAYMELRSLRSDDTAVYYCARRYYYGTGIADWYFDVWGQGTLVTVSS VL: DIQMTQSPSSLSASVGDRVTITCKASQDINSYLSWFQQKPGKAPKSLIYRANRLVDGVPSKFSGSGSGTDYTLTISSLQPEDFATYYCLQSDEFPLTFGQGTKLEIKR",
binds,,,,,"HoLo (antibody, V domains shown, also called H0L0; copies: 2 + 2) VH: QVQLVQSGAEVKKPGASVKVSCKASGYTFTGYFMHWVRQAPGQGLEWMGNIYPYNGVSNYNQRFKARVTMTTDTSTSTAYMELRSLRSDDTAVYYCARRYYYGTGPADWYFDVWGQGTLVTVSS VL: DIQMTQSPSSLSASVGDRVTITCKASQDINSYLSWFQQKPGKAPKSLIYRANRLVDGVPSKFSGSGSGTDFTLTISSLQPEDFATYYCLQCDEFPLTFGQGTKLEIKR",
,3 rank,2 rank,5.51 nM,4 rank,"H2L2-C91S_V102N (antibody, V domains shown) VH: QVQLVQSGAEVKKPGASVKVSCKASGYSFTGYFMHWVRQAPGQGLEWMGNIYPYNGVSNYNQRFKARVTMTTDTSTSTAYMELRSLRSDDTAVYYCARRYYYGTGPADWYFDNWGQGTLVTVSS VL: DIQMTQSPSSLSASVGDRVTITCKASQDINSYLSWFQQKPGKAPKSLIYRANRLVDGVPSKFSGSGSGTDYTLTISSLQPEDFATYYCLQSDEFPLTFGQGTKLEIKR",
,1 rank,1 rank,4.24 nM,,"H2L2-C91S_P100B_F (antibody, V domains shown) VH: QVQLVQSGAEVKKPGASVKVSCKASGYSFTGYFMHWVRQAPGQGLEWMGNIYPYNGVSNYNQRFKARVTMTTDTSTSTAYMELRSLRSDDTAVYYCARRYYYGTGFADWYFDVWGQGTLVTVSS VL: DIQMTQSPSSLSASVGDRVTITCKASQDINSYLSWFQQKPGKAPKSLIYRANRLVDGVPSKFSGSGSGTDYTLTISSLQPEDFATYYCLQSDEFPLTFGQGTKLEIKR",
,,,,5 rank,"H2L2-C91S_Y96L (antibody, V domains shown) VH: QVQLVQSGAEVKKPGASVKVSCKASGYSFTGYFMHWVRQAPGQGLEWMGNIYPYNGVSNYNQRFKARVTMTTDTSTSTAYMELRSLRSDDTAVYYCARRLYYGTGPADWYFDVWGQGTLVTVSS VL: DIQMTQSPSSLSASVGDRVTITCKASQDINSYLSWFQQKPGKAPKSLIYRANRLVDGVPSKFSGSGSGTDYTLTISSLQPEDFATYYCLQSDEFPLTFGQGTKLEIKR",
,,,,,"H9L5 (antibody, IgG1, V domains shown, Humanised IgG1/kappa) VH: QVQLVQSGAEVKKPGASVKISCKASGYSFTGYFMHWVRQAPGQGLEWIGNIYPYNSVSNYNQRFKAKATLTVDKSTSTAYMELRSLRSDDTAVYYCARRYYYGTGPADWYYDVWGQGTLVTVSS VL: DIQMTQSPSSLSASVGDRVTITCKASQDINSYLSWFQQKPGKAPKTLIYRANRLVDGVPSKFSGSGSGTDYTLTISSLQPEDFATYYCLQSDEFPLTFGQGTKLEIKR","IC50, myostatin responsive reporter gene neutralisation assay (A204) [6]: 4 nM; IC50 [7]: 0.14 nM"
,,5 rank,,,"H2L2-C91S_G99D (antibody, V domains shown) VH: QVQLVQSGAEVKKPGASVKVSCKASGYSFTGYFMHWVRQAPGQGLEWMGNIYPYNGVSNYNQRFKARVTMTTDTSTSTAYMELRSLRSDDTAVYYCARRYYYDTGPADWYFDVWGQGTLVTVSS VL: DIQMTQSPSSLSASVGDRVTITCKASQDINSYLSWFQQKPGKAPKSLIYRANRLVDGVPSKFSGSGSGTDYTLTISSLQPEDFATYYCLQSDEFPLTFGQGTKLEIKR",
